{
  "source": "patent US20210246204A1",
  "about": "(Alector, published 2021)",
  "binders": {"B1": {"name": "S7AB-H1 (antibody, V domains shown)", "VH": "QVQLVQSGAEVKKPGASVKVSCKASGYAFTNCWMNWVRQAPGQGLEWMGRIFPGNGHTNYAQKFQGRVTMTRDTSTSTVYMELSSLRSEDTAVYYCARDYSDYYFDYWGQGTLVTVSS", "VL": "DIQMTQSPSSLSASVGDRVTITCRASQDINTYLNWYQQKPGKAPKLLIYYTSRLHSGVPSRFSGSGSGTDFTLTISSLQPEDFATYYCQQGNTLPWTFGQGTKLEIK"}, "B2": {"name": "S7AB-H3 (antibody, V domains shown)", "VH": "B1 VH", "VL": "B1 VL with I2V, F71Y"}, "B3": {"name": "S7AB-H6 (antibody, V domains shown)", "VH": "B1 VH with M48I, R72E", "VL": "B1 VL with I2V, F71Y"}, "B4": {"name": "S7AB-H4 (antibody, V domains shown)", "VH": "B1 VH with M48I, R72E", "VL": "B1 VL"}, "B5": {"name": "S7AB-H7 (antibody, V domains shown)", "VH": "B1 VH with V20I, M48I, V68A, M70L, R72E, V79A", "VL": "B1 VL"}, "B6": {"name": "S7AB-H10 (antibody, V domains shown)", "VH": "B1 VH with V20I, M48I, V68A, M70L, R72E, V79A, V114L", "VL": "B1 VL"}, "B7": {"name": "S7AB-H5 (antibody, V domains shown)", "VH": "B1 VH with M48I, R72E", "VL": "B1 VL with F71Y"}, "B8": {"name": "S7AB-H2 (antibody, V domains shown)", "VH": "B1 VH", "VL": "B1 VL with F71Y"}, "B9": {"name": "S7AB-H8.44 (antibody, V domains shown)", "VH": "B1 VH with N31A, C32A, M48I, N55L, V68A, M70L, R72E, V79A", "VL": "B1 VL with A25G, F71Y, T93I"}, "B10": {"name": "S7AB-H8.39 (antibody, V domains shown)", "VH": "B1 VH with N31A, C32A, M48I, N55L, V68A, M70L, R72E, V79A", "VL": "B1 VL with A25G, F71Y, T93V"}, "B11": {"name": "S7AB-H8.43 (antibody, V domains shown)", "VH": "B1 VH with N31G, C32Y, M48I, N55L, V68A, M70L, R72E, V79A", "VL": "B1 VL with A25G, F71Y, T93I", "notes": "also called S7AB-H.43"}, "B12": {"name": "S7AB-H8.45 (antibody, V domains shown)", "VH": "B1 VH with N31E, C32A, M48I, N55Y, V68A, M70L, R72E, V79A", "VL": "B1 VL with A25G, F71Y, T93I"}, "B13": {"name": "S7AB-H8.41 (antibody, V domains shown)", "VH": "B1 VH with N31E, C32T, M48I, N55L, V68A, M70L, R72E, V79A", "VL": "B1 VL with A25G, F71Y, T93I"}, "B14": {"name": "S7AB-H8.40 (antibody, V domains shown)", "VH": "B1 VH with N31E, C32A, M48I, N55Y, V68A, M70L, R72E, V79A", "VL": "B1 VL with A25G, F71Y, T93V"}, "B15": {"name": "S7AB-H8.42 (antibody, V domains shown)", "VH": "B1 VH with N31M, C32A, M48I, N55Y, V68A, M70L, R72E, V79A", "VL": "B1 VL with A25G, F71Y, T93I"}, "B16": {"name": "S7AB-H8.38 (antibody, V domains shown)", "VH": "B1 VH with N31G, C32Y, M48I, N55L, V68A, M70L, R72E, V79A", "VL": "B1 VL with A25G, F71Y, T93V"}, "B17": {"name": "S7AB (antibody, V domains shown)", "VH": "QVHLQQSGPELVKPGASVKISCKASGYAFTNCWMNWVRQRPGKGLDWIGRIFPGNGHTNYSGKFKDKATLTEDKSSSTAYMQLSSLTSEDSAVYFCARDYSDYYFDYWGQGTTLTVSS", "VL": "DVQMTQTTSSLSASLGDRVTISCRASQDINTYLNWYQQKPDGTVKLLIYYTSRLHSGVPSRFSGSGSGTDYSLTISNLEQEDIATYFCQQGNTLPWTFGGGTKLEIK", "notes": "Parental mouse antibody; also called S7-10B5.1; mouse anti-human Siglec-7 antibody"}, "B18": {"name": "S7AB-H8.44 huIgG1 SELF (antibody, V domains shown)", "VH": "B1 VH with N31A, C32A, M48I, N55L, V68A, M70L, R72E, V79A", "VL": "B1 VL with A25G, F71Y, T93I"}, "B19": {"name": "S7AB-H8.44 huIgG1 N297A (antibody, V domains shown)", "VH": "B1 VH with N31A, C32A, M48I, N55L, V68A, M70L, R72E, V79A", "VL": "B1 VL with A25G, F71Y, T93I"}, "B20": {"name": "S7AB-H8.44 huIgG1 (antibody, V domains shown)", "VH": "B1 VH with N31A, C32A, M48I, N55L, V68A, M70L, R72E, V79A", "VL": "B1 VL with A25G, F71Y, T93I"}, "B21": {"name": "S7AB-H8.44 huIgG2 (antibody, V domains shown)", "VH": "B1 VH with N31A, C32A, M48I, N55L, V68A, M70L, R72E, V79A", "VL": "B1 VL with A25G, F71Y, T93I"}, "B22": {"name": "S7AB-H8.44 huIgG1 LALAPS (antibody, V domains shown)", "VH": "B1 VH with N31A, C32A, M48I, N55L, V68A, M70L, R72E, V79A", "VL": "B1 VL with A25G, F71Y, T93I"}},
  "note": "Positions count from the first letter of the chain named. Numbers in names are those of the source.",
  "data": [
    {"target": "T1, human Siglec-7 on primary human monocyte-derived dendritic cells (human, UniProt Q9Y286 19-467)", "T1 construct": "Endogenous Siglec-7 on dendritic cells differentiated from monocytes of healthy human donors", "T1 sequence (Q9Y286 19-467)": "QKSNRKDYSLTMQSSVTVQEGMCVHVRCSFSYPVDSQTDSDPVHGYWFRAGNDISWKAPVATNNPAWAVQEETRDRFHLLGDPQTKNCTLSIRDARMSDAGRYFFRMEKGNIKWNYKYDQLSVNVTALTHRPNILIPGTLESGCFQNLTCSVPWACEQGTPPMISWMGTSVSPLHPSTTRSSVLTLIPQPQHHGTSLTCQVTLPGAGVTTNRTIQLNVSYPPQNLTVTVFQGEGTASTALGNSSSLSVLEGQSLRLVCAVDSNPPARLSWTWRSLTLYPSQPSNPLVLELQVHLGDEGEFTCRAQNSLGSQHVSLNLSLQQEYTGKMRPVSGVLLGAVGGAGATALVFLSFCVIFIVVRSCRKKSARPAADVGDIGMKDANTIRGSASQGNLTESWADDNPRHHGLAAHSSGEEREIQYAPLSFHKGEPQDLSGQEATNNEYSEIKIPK", "test": "flow cytometry, primary human dendritic cells", "description": "The 12 humanized antibodies of S7AB were evaluated for binding to primary dendritic cells by flow cytometry. Monocytes were isolated from blood from healthy human donors using the RosetteSep™ monocyte isolation antibody cocktail (StemCell Technologies). The isolated monocytes were differentiated into dendritic cells with 100 ng/mL GM-CSF and 100 ng/mL IL-4 (Peprotech). Dendritic cells were incubated with dilutions of the anti-Siglec-7 antibodies for 30 minutes on ice in the dark, followed by a 30-minute incubation with a fluorescently-conjugated anti-human IgG secondary antibody. Cells were washed twice in FACS buffer (PBS+2% FBS, 2 mM EDTA), and flow cytometry was performed on a BD FACS Canto. Data were analyzed using FlowJo software (Ashland, Oreg.).", "units": {"EC50": "nM"}, "values": [
      {"binder": "B1", "EC50": 4.6},
      {"binder": "B2", "EC50": 1.6},
      {"binder": "B3", "EC50": 1.6},
      {"binder": "B4", "EC50": 3.2},
      {"binder": "B5", "EC50": 3.3},
      {"binder": "B6", "EC50": 6.3},
      {"binder": "B7", "EC50": 1.1},
      {"binder": "B8", "EC50": 1.8}
    ]},
    {"target": "T1, human Siglec-7 on primary human …", "test": "cell-based or functional assay", "units": {"Fold increase in potency compared to AB-H8": "fold", "Fold increase in potency compared to Chimeric Ab": "fold", "Maximal downregulation (% Siglec-7 remaining)": "%", "Receptor downregulation, (EC50) (pM)": "pM"}, "values": [
      {"binder": "B9", "Fold increase in potency compared to AB-H8": 5.6, "Fold increase in potency compared to Chimeric Ab": 16.7, "Maximal downregulation (% Siglec-7 remaining)": 3.6, "Receptor downregulation, (EC50) (pM)": 61.2},
      {"binder": "B10", "Fold increase in potency compared to AB-H8": 6, "Fold increase in potency compared to Chimeric Ab": 18, "Maximal downregulation (% Siglec-7 remaining)": 4.3, "Receptor downregulation, (EC50) (pM)": 56.8},
      {"binder": "B11", "Fold increase in potency compared to AB-H8": 10.2, "Fold increase in potency compared to Chimeric Ab": 30.8, "Maximal downregulation (% Siglec-7 remaining)": 17.1, "Receptor downregulation, (EC50) (pM)": 33.2},
      {"binder": "B12", "Fold increase in potency compared to AB-H8": 3.4, "Fold increase in potency compared to Chimeric Ab": 10.4, "Maximal downregulation (% Siglec-7 remaining)": 6.9, "Receptor downregulation, (EC50) (pM)": 98.6},
      {"binder": "B13", "Fold increase in potency compared to AB-H8": 3.2, "Fold increase in potency compared to Chimeric Ab": 9.5, "Maximal downregulation (% Siglec-7 remaining)": 9.6, "Receptor downregulation, (EC50) (pM)": 108},
      {"binder": "B14", "Fold increase in potency compared to AB-H8": 2.9, "Fold increase in potency compared to Chimeric Ab": 8.9, "Maximal downregulation (% Siglec-7 remaining)": 9.4, "Receptor downregulation, (EC50) (pM)": 115},
      {"binder": "B15", "Fold increase in potency compared to AB-H8": 5.4, "Fold increase in potency compared to Chimeric Ab": 16.4, "Maximal downregulation (% Siglec-7 remaining)": 3.3, "Receptor downregulation, (EC50) (pM)": 62.6},
      {"binder": "B16", "Fold increase in potency compared to AB-H8": 4.8, "Fold increase in potency compared to Chimeric Ab": 14.5, "Maximal downregulation (% Siglec-7 remaining)": 17.1, "Receptor downregulation, (EC50) (pM)": 70.4}
    ]},
    {"target": "T2, histidine-tagged human Siglec-7 (NovoProtein) (human, UniProt Q9Y286 19-353)", "T2 construct": "Bought protein; also called recombinant human Siglec-7; recombinant Siglec-7; not shown: histidine tag", "T2 sequence (Q9Y286 19-353 limits assumed)": "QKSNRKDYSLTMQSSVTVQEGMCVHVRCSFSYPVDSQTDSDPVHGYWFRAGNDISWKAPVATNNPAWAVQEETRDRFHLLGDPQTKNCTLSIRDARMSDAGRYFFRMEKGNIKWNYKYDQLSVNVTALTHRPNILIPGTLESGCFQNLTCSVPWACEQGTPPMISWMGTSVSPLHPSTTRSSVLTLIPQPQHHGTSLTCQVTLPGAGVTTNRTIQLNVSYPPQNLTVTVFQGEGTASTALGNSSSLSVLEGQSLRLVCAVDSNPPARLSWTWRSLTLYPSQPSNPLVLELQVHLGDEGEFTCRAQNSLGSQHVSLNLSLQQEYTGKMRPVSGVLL", "test": "BLI (ForteBio), antibody captured", "description": "In this assay, the humanized antibodies were compared directly to S7AB. Briefly, the antibodies were captured on anti-human or anti-mouse IgG Fc Biosensors (Pall ForteBio). Varying concentrations (0-100 nM) of histidine-tagged human Siglec-7 (NovoProtein) were then bound to the captured anti-Siglec-7 surface (200 s association time, 900 s dissociation time). Multi-concentration kinetic analysis was performed using a 1:1 interaction model to extract association and dissociation rate constants (kₐ and kd, respectively) for each antibody. Apparent affinity constants (KD) were calculated from the ratio kd/kₐ.", "units": {"Kd": "nM", "koff": "s⁻¹", "kon": "M⁻¹ s⁻¹"}, "values": [
      {"binder": "B17", "Kd": 1.24, "koff": 0.000242, "kon": 195000}
    ]},
    {"target": "T1, human Siglec-7 on primary human …", "test": "cell-based or functional assay", "remark": "another data set of the same source", "units": {"Maximal downregulation (% Siglec-7 remaining)": "%", "Receptor downregulation, (pM, EC50)": "pM"}, "values": [
      {"binder": "B18", "Maximal downregulation (% Siglec-7 remaining)": "< 0.1", "Receptor downregulation, (pM, EC50)": 9.1},
      {"binder": "B19", "Maximal downregulation (% Siglec-7 remaining)": 2.9, "Receptor downregulation, (pM, EC50)": 68.6},
      {"binder": "B20", "Maximal downregulation (% Siglec-7 remaining)": 1, "Receptor downregulation, (pM, EC50)": 33.6},
      {"binder": "B21", "Maximal downregulation (% Siglec-7 remaining)": 2.8, "Receptor downregulation, (pM, EC50)": 43.8},
      {"binder": "B22", "Maximal downregulation (% Siglec-7 remaining)": 2.8, "Receptor downregulation, (pM, EC50)": 67.3}
    ]},
    {"target": "T2, histidine-tagged human Siglec-7 …", "test": "BLI, antibody captured", "in_short": "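Antibodies captured on anti-human or anti-mouse IgG Fc biosensors; His-tagged human Siglec-7 flowed at 0–100 nM (200 s association, 900 s dissociation). ka and kd from 1:1 multi-concentration fit; apparent KD = kd/ka.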", "units": {"Kd": "nM", "fold improvement over S7AB-H8": "fold", "koff": "s⁻¹", "kon": "M⁻¹ s⁻¹"}, "values": [
      {"binder": "B9", "Kd": 0.198, "fold improvement over S7AB-H8": 5.3, "koff": "3.71e-05", "kon": 188000},
      {"binder": "B10", "Kd": 0.215, "fold improvement over S7AB-H8": 4.9, "koff": "3.56e-05", "kon": 166000},
      {"binder": "B11", "Kd": 0.256, "fold improvement over S7AB-H8": 4.1, "koff": "5.84e-05", "kon": 228000},
      {"binder": "B12", "Kd": 0.444, "fold improvement over S7AB-H8": 2.4, "koff": "7.55e-05", "kon": 170000},
      {"binder": "B13", "Kd": 0.531, "fold improvement over S7AB-H8": 2, "koff": "9.12e-05", "kon": 172000},
      {"binder": "B14", "Kd": 0.425, "fold improvement over S7AB-H8": 2.5, "koff": "6.29e-05", "kon": 148000},
      {"binder": "B15", "Kd": 0.126, "fold improvement over S7AB-H8": 8.3, "koff": "2.42e-05", "kon": 191000},
      {"binder": "B16", "Kd": 0.324, "fold improvement over S7AB-H8": 3.2, "koff": "7.4e-05", "kon": 229000}
    ]}
  ]
}
